Experimental data as given in the supplement of paper PMC7125110.
± gives the standard error. Fewer inactive variants are shown than the library holds.

B1: glmS ribozyme (parent)
chain: AUAAAAGCGCCAGAACUACAGAAAUGUAGUUGACGAGGAGGAGGUUUAUCGAAUUUUCGGCGGAUGCCUCCAAA

Columns and labels:
Conditions in all cases: with glucosamine-6-phosphate
[1] = variants of: B1; assay: self-cleavage kobs at 640 uM GlcN6P; higher = faster cleavage; RNA array
Method in brief: (§1)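 E. coli RNA polymerase transcribed barcoded ribozyme variants in situ on sequenced MiSeq chips, which were tracked via a hybridised Cy3 probe at 37 °C. Tiles were imaged over ~14 h after glucosamine-6-phosphate (40 μM to 10 mM) in HEPES/KCl/Mg(OAc)2 buffer was flowed in. Normalised per-tile medians were fit to one- or two-exponential decays for kobs, and kcat and KM came from weighted Michaelis–Menten fits.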

[2] = variants of: B1; assay: self-cleavage kobs at 160 uM GlcN6P; higher = faster cleavage; RNA array
Method in brief: as §1

[3] = variants of: B1; assay: self-cleavage kobs at 10000 uM GlcN6P; higher = faster cleavage; RNA array
Method in brief: as §1

[4] = variants of: B1; assay: self-cleavage kobs at 2500 uM GlcN6P; higher = faster cleavage; RNA array
Method in brief: as §1

Variant	self-cleavage kobs at 640 uM GlcN6P [1] [s⁻¹]	self-cleavage kobs at 160 uM GlcN6P [2] [s⁻¹]	self-cleavage kobs at 10000 uM GlcN6P [3] [s⁻¹]	self-cleavage kobs at 2500 uM GlcN6P [4] [s⁻¹]
G7U G40A G59U	< 1e-05			
G7A U55C C58G	< 1e-05			
G62U C68G	< 1e-05	< 1e-05	< 1e-05	
U57G G63C	< 1e-05	< 1e-05		< 1e-05
A6G U30G G43C G60U C71G	< 1e-05			
G51U A53U C58A C70A	7.01e-05 ± 2.6e-05	8.95e-05 ± 1.6e-05		5.47e-05 ± 2.1e-05
G7U G35U G38C	< 1e-05		< 1e-05	< 1e-05
A6C G13A G38A C58U	< 1e-05			
A6G G40A C67U	< 1e-05			< 1e-05
G7A G37A G60U A64U	< 1e-05			
A6C A36C U56G	< 1e-05			< 1e-05
A6G A14U C16G U56A	< 1e-05			
G7U U47G A53U	< 1e-05			< 1e-05
G60U A64C G66U C70A		< 1e-05		
A6G C16G G32A	< 1e-05			< 1e-05
C8A G13U C16A A33U U65G C71A	< 1e-05			< 1e-05
U57C G62A		< 1e-05	< 1e-05	
A48C U55A G66C		< 1e-05		
A6G G43A C68A	< 1e-05			
G7U C50U U65A U69C C71U	6.46e-05 ± 2.1e-05			
A6U U45A C50G U65G U69G	< 1e-05			
A52C U65A	< 1e-05	< 1e-05	< 1e-05	< 1e-05
A6U A15G C19A A33C C68G	< 1e-05			< 1e-05

Variant	self-cleavage kobs at 640 uM GlcN6P [1] [s⁻¹]	self-cleavage kobs at 160 uM GlcN6P [2] [s⁻¹]	self-cleavage kobs at 10000 uM GlcN6P [3] [s⁻¹]	self-cleavage kobs at 2500 uM GlcN6P [4] [s⁻¹]
G7C C11U G59U C61U	< 1e-05			
A6U C61G C67A	0.000106 ± 3.9e-05			0.00149 ± 0.00065
A6C A14U U55G	< 1e-05			
U49C A53C	< 1e-05	< 1e-05		< 1e-05
G7U G40A G60U	< 1e-05			< 1e-05
C58U C61G G66A C67A	0.000108 ± 3.7e-05	5.89e-05 ± 2e-05		
U55C C58U		< 1e-05	6.55e-05 ± 8.7e-06	
A6U G37U A48C C67G	< 1e-05			< 1e-05
C8A G13A C61U G62C C70A	< 1e-05			< 1e-05
G7A A52G U57A	< 1e-05			< 1e-05
A48U G51U		< 1e-05		< 1e-05
G51C G59A	< 1e-05	< 1e-05		< 1e-05
G59A G62U		< 1e-05		< 1e-05
G51C U56C	< 1e-05	< 1e-05	< 1e-05	< 1e-05
C58A G59C	< 1e-05	< 1e-05	< 1e-05	
A6U G35C C68G C70U	0.000713 ± 0.00023			
A6U A15C G44U	< 1e-05			< 1e-05
G7U A12U G40U U55C C71A	< 1e-05			< 1e-05
C61U A64C C67G		< 1e-05		< 1e-05
G7A G40U C58U	< 1e-05			< 1e-05
G7U A12G A48U G63U	< 1e-05			
C8A C11U G60C C67A	< 1e-05		< 1e-05	< 1e-05
A6U C8A U31G	< 1e-05			< 1e-05

Variant	self-cleavage kobs at 640 uM GlcN6P [1] [s⁻¹]	self-cleavage kobs at 160 uM GlcN6P [2] [s⁻¹]	self-cleavage kobs at 10000 uM GlcN6P [3] [s⁻¹]	self-cleavage kobs at 2500 uM GlcN6P [4] [s⁻¹]
U45G A53C C71U	0.000323 ± 7e-05	0.000134 ± 5.7e-05		0.000938 ± 0.00023
A6G U31A A36G A48U	< 1e-05			
G7A C11U A52U C58A G62U	< 1e-05			
U46A C61G	< 1e-05	< 1e-05		< 1e-05
A6U C16U G40U C67A	< 1e-05			< 1e-05
G7U G9A A14U U55C	< 1e-05			
A6G A42C C58U	< 1e-05			< 1e-05
G7C G38C A48C	< 1e-05			< 1e-05
G7C A12U G41U	< 1e-05			< 1e-05
A6C A39U G41C A52U	< 1e-05			< 1e-05
G59U U65A C67U		< 1e-05		
A6G C16A G35U A48U	< 1e-05			< 1e-05
U49G G60U	< 1e-05	< 1e-05		< 1e-05
A6G U31G G37U	< 1e-05			< 1e-05
A6G C58U U69A	0.000521 ± 0.00019			
U45C U46C	0.000335 ± 5.7e-05	0.000106 ± 3e-05		0.00111 ± 0.00037
A6C U30A C67G	< 1e-05			
G59U C67U C68U U69C		4.87e-05 ± 2.4e-05		
C50G G59U	0.000241 ± 8.6e-05	7.49e-05 ± 1.3e-05		0.000355 ± 0.0001
G60C G63A	< 1e-05	< 1e-05	< 1e-05	< 1e-05
G7U G9C G29C A39G U46A A52U U55C C67G C70U	< 1e-05			< 1e-05
C50G A53G C61U	0.000248 ± 8.1e-05	0.000208 ± 7.8e-05	9.79e-05 ± 2.5e-05	0.000398 ± 9.7e-05
G7A G38C C58A	< 1e-05			< 1e-05

Variant	self-cleavage kobs at 640 uM GlcN6P [1] [s⁻¹]	self-cleavage kobs at 160 uM GlcN6P [2] [s⁻¹]	self-cleavage kobs at 10000 uM GlcN6P [3] [s⁻¹]	self-cleavage kobs at 2500 uM GlcN6P [4] [s⁻¹]
G7C A36U C67G	< 1e-05		< 1e-05	< 1e-05
G7C G13A G43C G51C A52G C58A G66C C68A	< 1e-05			
A6G G63C C67A	< 1e-05			
G7U A39C A42C	< 1e-05			< 1e-05
G51U G62U A64C		< 1e-05		
G51U G60C C70U	< 1e-05	< 1e-05		
A6U C10U G32C	< 1e-05			
G7A A39G A64C C71U	< 1e-05			< 1e-05
A6G C11A G59U G60C	< 1e-05			
A6G G7A C11G G32A U45G	< 1e-05			
A6U A33C A39U C71U	< 1e-05			
A6U G29A U31A G43C U46G C58G	< 1e-05			< 1e-05
U2A	0.0236 ± 0.0098			
G7U C16U U30G	< 1e-05			
G7A G9U G13U A48C	< 1e-05			
A6C A53U C58U	< 1e-05			< 1e-05
U49C G62A	< 1e-05	< 1e-05	< 1e-05	
U49C G62U	< 1e-05	< 1e-05	< 1e-05	< 1e-05
G7U G41C C58A	< 1e-05			< 1e-05
U46G U49A	< 1e-05	< 1e-05	< 1e-05	< 1e-05
G7U G9A G38U	< 1e-05			
G7U U30G G63U	< 1e-05			
A48G U49C G60A	< 1e-05	< 1e-05		< 1e-05

Variant	self-cleavage kobs at 640 uM GlcN6P [1] [s⁻¹]	self-cleavage kobs at 160 uM GlcN6P [2] [s⁻¹]	self-cleavage kobs at 10000 uM GlcN6P [3] [s⁻¹]	self-cleavage kobs at 2500 uM GlcN6P [4] [s⁻¹]
A6G C61G C71G	7.45e-05 ± 2.4e-05			
U45A A53G C71U	0.00623 ± 0.0015	0.00381 ± 0.0013		0.00735 ± 0.0025
A6U G37C G38A C71A	< 1e-05			
A48C C50A A52G		< 1e-05		< 1e-05
C8A A15U A48C	< 1e-05			
C8A G32A A36C G41A A42U	< 1e-05			< 1e-05
A6U C10U G35C A48U G63A	< 1e-05			
C58U G63A		< 1e-05	< 1e-05	
U55A A64G C71A	0.000572 ± 0.00013	0.000178 ± 4.2e-05		
U47C G62C	< 1e-05	< 1e-05	< 1e-05	< 1e-05
G60A C61U	< 1e-05	< 1e-05	< 1e-05	< 1e-05
C8A C16A G63U A64G U65C C71G	< 1e-05			
A6C A14G A36G A52C	< 1e-05			< 1e-05
A48G A52C U55C	< 1e-05	< 1e-05		
C8A C16U G38A	< 1e-05		< 1e-05	
G7C C10A G13A G37A U45A	< 1e-05			< 1e-05
G7A A15U G51C A64G	< 1e-05			
G7C A48G U54G	< 1e-05			
G7U G9A G40C	< 1e-05			< 1e-05
A6U G32C C67G	< 1e-05			< 1e-05
A53U G59U C61U G66U		< 1e-05		< 1e-05
A6G G9U C58A	< 1e-05		< 1e-05	< 1e-05
A6U C11G C68A C70G	< 1e-05			< 1e-05
